Source: US20200277401A1 (PANGEN BIOTECH, published 2020)

Target: T1, recombinant coagulation factor VIII protein (Homo sapiens (Human), UniProt P00451 20-2351)
T1 construct: Recombinant protein isolated from a cell culture solution; also called recombinant coagulation factor FVIII; FVIII
T1 sequence: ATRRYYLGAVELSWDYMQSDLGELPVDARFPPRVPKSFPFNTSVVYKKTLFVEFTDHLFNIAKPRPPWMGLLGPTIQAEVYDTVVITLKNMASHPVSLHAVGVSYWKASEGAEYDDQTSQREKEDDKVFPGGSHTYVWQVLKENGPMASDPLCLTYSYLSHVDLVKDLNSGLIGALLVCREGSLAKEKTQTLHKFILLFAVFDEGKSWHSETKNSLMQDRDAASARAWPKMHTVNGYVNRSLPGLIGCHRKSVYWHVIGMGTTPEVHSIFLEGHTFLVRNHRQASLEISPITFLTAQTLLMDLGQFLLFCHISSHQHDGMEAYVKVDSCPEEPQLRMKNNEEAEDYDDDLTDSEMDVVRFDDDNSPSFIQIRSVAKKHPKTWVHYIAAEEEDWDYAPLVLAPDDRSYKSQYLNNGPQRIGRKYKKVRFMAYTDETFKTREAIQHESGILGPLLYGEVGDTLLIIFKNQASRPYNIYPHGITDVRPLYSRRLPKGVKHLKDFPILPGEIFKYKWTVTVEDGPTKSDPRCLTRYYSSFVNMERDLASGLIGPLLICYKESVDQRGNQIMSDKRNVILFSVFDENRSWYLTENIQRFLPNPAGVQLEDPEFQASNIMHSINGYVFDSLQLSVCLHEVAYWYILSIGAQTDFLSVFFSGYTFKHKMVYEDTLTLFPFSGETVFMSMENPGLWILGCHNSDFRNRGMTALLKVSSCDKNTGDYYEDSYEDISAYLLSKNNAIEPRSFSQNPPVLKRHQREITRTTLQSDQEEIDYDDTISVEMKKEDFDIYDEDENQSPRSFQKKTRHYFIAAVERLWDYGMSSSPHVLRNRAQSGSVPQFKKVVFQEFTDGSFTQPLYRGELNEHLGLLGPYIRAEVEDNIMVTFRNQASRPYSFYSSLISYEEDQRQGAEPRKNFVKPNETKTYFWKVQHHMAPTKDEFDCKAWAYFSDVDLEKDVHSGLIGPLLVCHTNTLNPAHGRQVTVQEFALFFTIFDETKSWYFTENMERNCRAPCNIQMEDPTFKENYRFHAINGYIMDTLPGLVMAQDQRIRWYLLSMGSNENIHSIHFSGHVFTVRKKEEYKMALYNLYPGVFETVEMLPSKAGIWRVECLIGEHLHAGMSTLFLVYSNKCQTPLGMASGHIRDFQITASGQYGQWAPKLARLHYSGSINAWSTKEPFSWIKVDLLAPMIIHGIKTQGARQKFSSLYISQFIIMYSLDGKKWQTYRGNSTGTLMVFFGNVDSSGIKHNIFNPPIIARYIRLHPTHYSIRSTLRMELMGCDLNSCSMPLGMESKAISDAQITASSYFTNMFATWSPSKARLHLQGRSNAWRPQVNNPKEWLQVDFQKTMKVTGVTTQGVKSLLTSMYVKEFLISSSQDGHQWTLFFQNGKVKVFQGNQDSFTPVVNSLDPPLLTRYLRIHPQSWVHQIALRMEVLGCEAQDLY
Assay: SPR, Biacore T200, FVIII immobilised on CM5 chip, antibody as analyte, 1:1 model
Experimental: The kinetic affinity (Ka, Kd, KD) between the purified antibody protein and the recombinant coagulation factor FVIII protein through antigen-antibody reaction was measured by a SPR (surface plasmon resonance) method.
The CM5 chip was mounted on a Biacore T200 instrument, and the recombinant coagulation factor FVIII protein as a ligand was diluted in a 10 mM sodium acetate buffer (pH 5.0) and injected into a sample channel for 10 minutes for immobilization. The purified antibody protein, as the analyte, was prepared at a concentration of 2 μM by diluting with a buffer and was then serially diluted to ten concentrations (0.0039, 0.0078, 0.015, 0.031, 0.062, 0.125, 0.25, 0.5, 1, 2 μM). Association and dissociation times were set to 3 minutes and 4 minutes, respectively, and association and dissociation were measured.
BIAevaluation analysis software was used to analyze the kinetic affinity of the purified antibody protein and the recombinant coagulation factor FVIII protein. The association force, dissociation force and dissociation constant were calculated as follows by applying ten concentrations of association/dissociation data to a 1:1 kinetic binding model (A+B↔AB).

B1: anti-FVIII antibody (purified antibody protein produced by the ADBA1013-14 CHO cell line from the heavy and light chain genes of hybridoma clone 3F6-2-5) (antibody, mouse IgG1, V domains shown)
VH: EVKIEESGGGLVQPGGSMKLSCAASGFTFSDAWMDWVRQSPEKGLEWVAEIRSKAKNHATNYAESVKGRFTISRDDSKSRVYLQMNTLRAEDTGIYYCTNYHFWGPGTTLTVS
VL: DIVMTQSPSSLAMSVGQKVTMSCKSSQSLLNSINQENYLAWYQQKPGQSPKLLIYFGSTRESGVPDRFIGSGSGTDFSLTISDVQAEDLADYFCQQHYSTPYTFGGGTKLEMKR
modifications: N-glycan on Asparagine No. 288 of the heavy chain
notes: The full chains are in the listing under one of these numberings; The hybridoma antibody 3F6-2-5 and the recombinant CHO product are treated as one molecule (same genes); also called purified anti-FVIII antibody protein; anti-coagulation factor VIII antibody
B1 was tested, and the Kd was 55.3 nM, the koff was 0.00068 s⁻¹ and the kon was 12300 M⁻¹ s⁻¹.
